{
  "source": "paper doi:10.1101/2019.12.12.872739",
  "target": "LecB-biotin (Pseudomonas aeruginosa lectin LecB, biotinylated) (Pseudomonas aeruginosa) (UniProt Q9HYN5)",
  "experiment": "pull-down",
  "data": [
    {"substance": "β1-integrin (glycosylated, endogenous in MDCK cells) (receptor)", "values": [
      {"measurement": "percent of total β1-integrin extracted by LecB-biotin", "value": 75, "unit": "%"}
    ]}
  ]
}
